Assay results as given in PMC5518878.

Biological target: full-length rhodopsin of Figure 2A, fused to a TEV cleavage site and tTA (human) (UniProt P08100)
Assay: Tango assay (TEV protease proximity reporter); HTL cells co-transfected with receptor-TEV cleavage site-tTA and GRK-TEV protease fusions; luciferase reporter; vehicle or ligand overnight (ATR 10 μM for rhodopsin; paroxetine; DHE 0.1 μM, GR 127935 1 μM; SX 1 μM, ICI 118 551 1 μM); DNA amounts adjusted for similar expression

Chain of full-length rhodopsin of Figure 2A, fused to a TEV cleavage site and tTA (human) (P08100 whole entry, the tested form may be a part): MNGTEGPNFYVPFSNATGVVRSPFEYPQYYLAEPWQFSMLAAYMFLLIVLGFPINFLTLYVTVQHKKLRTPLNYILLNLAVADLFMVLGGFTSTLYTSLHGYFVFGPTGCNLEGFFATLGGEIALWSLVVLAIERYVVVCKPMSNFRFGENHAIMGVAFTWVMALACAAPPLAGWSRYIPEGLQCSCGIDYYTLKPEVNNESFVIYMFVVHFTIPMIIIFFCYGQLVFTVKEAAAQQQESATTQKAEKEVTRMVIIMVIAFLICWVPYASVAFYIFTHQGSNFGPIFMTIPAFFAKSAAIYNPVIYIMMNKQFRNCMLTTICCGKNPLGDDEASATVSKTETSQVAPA

binding capacity, percent of FL GRK1 [%] | Binder
70 | GRK1 (31-183)-TEV protease fusion (domain or fragment) RDKKYLAKLKLPPLSKCESLRDSLSLEFESVCLEQPIGKKLFQQFLQSAEKHLPALELWKDIEDYDTADNDLQPQKAQTILAQYLDPQAKLFCSFLDEGIVAKFKEGPVEIQDGLFQPLLQATLAHLGQAPFQEYLGSLYFLRFLQWKWLEAQ
70 | GRK1 (1-183)-TEV protease fusion (domain or fragment) MDFGSLETVVANSAFIAARGSFDGSSSQPSRDKKYLAKLKLPPLSKCESLRDSLSLEFESVCLEQPIGKKLFQQFLQSAEKHLPALELWKDIEDYDTADNDLQPQKAQTILAQYLDPQAKLFCSFLDEGIVAKFKEGPVEIQDGLFQPLLQATLAHLGQAPFQEYLGSLYFLRFLQWKWLEAQ
